Measured values as given in paper PMC8125067.

Target: T1, endogenous IRF3 of HEK293T cells (human (endogenous in HEK293T)), Q14653
T1 chain: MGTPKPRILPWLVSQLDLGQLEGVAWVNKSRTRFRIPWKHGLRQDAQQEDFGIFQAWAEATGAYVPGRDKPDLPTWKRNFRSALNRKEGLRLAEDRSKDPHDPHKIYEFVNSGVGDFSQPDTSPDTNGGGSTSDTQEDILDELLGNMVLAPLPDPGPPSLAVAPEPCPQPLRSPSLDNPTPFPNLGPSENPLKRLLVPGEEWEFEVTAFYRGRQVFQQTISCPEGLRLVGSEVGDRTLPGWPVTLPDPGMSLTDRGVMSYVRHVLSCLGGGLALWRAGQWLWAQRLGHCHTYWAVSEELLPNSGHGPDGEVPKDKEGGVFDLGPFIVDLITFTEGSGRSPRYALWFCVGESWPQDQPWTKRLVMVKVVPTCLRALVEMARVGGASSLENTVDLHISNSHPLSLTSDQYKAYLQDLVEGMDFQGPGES
Test: native gel or EMSA; IRF3 dimer gel: lysate of HEK293T transfected 36 h with or without MDA5 and VP3; native PAGE, 25 mM Tris-HCl, 192 mM glycine, pH 8.4, 1% deoxycholate in the cathode chamber; blot with anti-IRF3
Conditions: remark: other sources report otherwise

B1: endogenous IRF3 of HEK293T cells, Q14653 1-427 (natural protein)
chain: MGTPKPRILPWLVSQLDLGQLEGVAWVNKSRTRFRIPWKHGLRQDAQQEDFGIFQAWAEATGAYVPGRDKPDLPTWKRNFRSALNRKEGLRLAEDRSKDPHDPHKIYEFVNSGVGDFSQPDTSPDTNGGGSTSDTQEDILDELLGNMVLAPLPDPGPPSLAVAPEPCPQPLRSPSLDNPTPFPNLGPSENPLKRLLVPGEEWEFEVTAFYRGRQVFQQTISCPEGLRLVGSEVGDRTLPGWPVTLPDPGMSLTDRGVMSYVRHVLSCLGGGLALWRAGQWLWAQRLGHCHTYWAVSEELLPNSGHGPDGEVPKDKEGGVFDLGPFIVDLITFTEGSGRSPRYALWFCVGESWPQDQPWTKRLVMVKVVPTCLRALVEMARVGGASSLENTVDLHISNSHPLSLTSDQYKAYLQDLVEGMDFQGPGES
**Q.** Which stoichiometry N does the source give for B1 here?
**A.** The stoichiometry N was 2.
